Assay results taken from the supplement of paper PMC10567573.

B1: STX11 (parent)
chain: FQRAMHDYNQAEMKQRDNCKIRIQ
B2: RTN1 (parent)
chain: VVAYLALAALSATISFRIYKSVLQ

Variants of: B1
Assay: protein stability index of a GFP-peptide fusion (GPS, HEK-293T) (PSI 1-6); higher = more stable
Settings: c terminus: a fixed tail appended
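Note: lentivirally expressed fusions sorted by FACS into six bins by GFP to DsRed ratio, PSI derived from sequencing read proportions per bin multiplied by bin number.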

Protein stability index of substitutions, site by site:
D7: V 2.15, P 2.23, H 2.3, E 3.09, Y 1.67, F 1.17, I 1.7, K 2.56, G 2.18, N 2.66, S 2.21, M 2.85, L 1.43, C 1.71, R 2.12, A 2.67, Q 2.24, T 2.23
M5: Q 2.95, K 2.86, F 1.8, V 2.63, E 3.77, N 3.1, S 2.63, T 3.15, Y 1.88, P 2.64, L 3.18, A 3.93, R 2.78, H 2.16, C 2.73, G 2.9, D 3.65, I 2.16
R3: V 2.86, K 3.01, Y 2.25, D 3.44, L 2.76, P 2.99, M 1.62, T 2.93, F 2.07, Q 3.28, E 3.99, A 2.94, G 2.88, C 1.65, I 2.38, S 2.51, N 3.12, H 2.97
Q2: T 2.63, H 1.81, M 2.69, E 4, P 2.76, S 3.41, A 2, D 4.2, Y 2.95, K 3.14, I 2.27, L 2.65, W 2.19, N 3.61, V 2.55, G 3.82, F 2.84, C 1.79, R 3.02
A4: T 2.69, E 3.15, Y 2.59, V 2.28, P 3.3, F 2.86, S 2.8, K 2.54, H 2.75, C 2.21, L 2.46, W 1.77, I 2.18, G 2.19, R 1.9, N 2.78, Q 3.56, M 2.22, D 3.4
Y8: L 2.39, Q 3.83, A 3.64, F 2.52, V 2.89, W 2.08, D 3.4, N 3.83, E 3.47, P 3.32, C 2.62, G 3.39, I 3.08, S 3.45, T 3.62, K 3.58, H 3, M 3.15, R 2.61
N9: L 2.74, K 2.29, H 2.93, E 2.94, P 3.11, D 2.84, C 2.15, A 2.47, Q 2.64, G 2.33, F 1.83, M 1.7, I 2.25
H6: P 2.5, M 1.96, I 2.42, N 3.3, F 2.32, A 2.74, C 2.7, T 3.06, K 2.74, D 2.92, E 4, Q 2.66, R 2.16, V 2.8, G 2.9, L 2.91, S 1.9, Y 3.26, W 2.43
F1: N 4.4, Q 4.13, G 3.88, T 4.11, V 3.46, I 3.46, W 3.69, C 3.56, S 4.1, A 3.87, Y 2.78, M 3.82, K 3.98, E 4.17, D 4.15, L 3.29, R 3.28, H 4.18, P 4.17

Variants of: B2
Assay: as above
Settings: c terminus: a fixed tail appended

Protein stability index: each site, then its substitutions
R17: F 1.94, K 2.03, H 2.7, D 2.83, Y 3.59
A12: V 3.42, C 2.45, F 2.85, E 2.05, T 1.95
V22: T 2.38, L 2.33, Y 4.13, E 3.42, D 3.13, K 4.89, R 2.44, H 2.31
S15: A 1.01, P 2.71, F 1.27, H 3.38
S11: A 3.26, H 2.33, N 3.04, C 1.28
S21: V 4.53, F 2.18, P 1.65
L5: R 1.78, T 2.43, G 1.95, K 1.89, I 2.01, P 2.31, H 2.85, M 2.54, E 1.58, D 2.42, Q 2.8
Y19: Q 3.66, W 1.49, L 1.46, V 2.12, M 2.3, P 2.41, H 2.75, I 2.51, C 2.46, A 2.51
A8: W 3.8, F 1.68, D 2.28, C 1.26, N 1.69, R 2.18, P 3.27, K 2.2, Y 2.76, Q 4.3, S 1.95, L 2.31, M 4.1
I14: R 3.01, E 3.06, N 1.02, L 1.7
A3: D 2.01, K 1.08, C 3.67, I 2.65, Y 3.35, F 2.82, Q 2.68, E 3.04
L23: Y 3.05, P 2.48, Q 1.9, M 3.52, C 3.13, A 2.28
Q24: D 3.01, L 2.2, C 2.5, P 2.84, K 2.45, I 1.85
A9: P 3.77, N 3.05, T 2.52, W 1.94, D 2.48, S 2.41, E 2.85, G 1.53, V 2.94, F 2.86, K 2.25, Y 3.25
V2: T 3.88, H 4.06, D 2.43, C 3.71, K 4.51, F 2.9, P 1.66, Y 3, M 2.66
I18: L 1.99, R 2.8, K 4.46, A 1.05, F 2.06, S 2.78, Y 3.91
A6: G 4.25, I 1.91, T 2.77, F 3.07, Q 1.42, S 2.88, R 3.2, D 3.37, Y 2.9, C 2.86
T13: E 3.33, N 2.54, I 2.86, R 2.82, P 2.21, W 2.05, H 2.61
F16: E 1.76, Y 3.52
K20: H 3.98, E 5.17, S 2.68, N 2.27, A 3.28, M 3.61, D 2.89
L7: P 2.7, R 2.26, S 2.63, V 3.13, W 4.04, Y 3.97, D 1.99, I 2.46
V1: Q 2.13, L 2.56, D 2.2, S 2.55, C 1.99, M 2.21, H 1.68, N 2.64, Y 2.03, K 1.61
Y4: C 3.23, G 4.1, H 2.65, E 2.1, Q 2.68
L10: R 1.98, A 2.38, T 2.51, P 2.69, E 2.17, W 2.44, C 2.2, N 3.25
